As usually defined, the Km is the substrate concentration at which the rate is half of its maximum.

Test in all cases: purified protein, by the assay type
Substrate in series [1]: NC(=O)c1ccc[n+]([C@@H]2O[C@H](COP(=O)([O-])OP(=O)(O)OC[C@H]3O[C@@H](n4cnc5c(N)ncnc54)[C@H](O)[C@@H]3O)[C@@H](O)[C@H]2O)c1
The settings on record: other: coenzyme NADP or NAD; pH 8.9.
Description: The activity required to increase the absorbance of 1 micromol of NADPH at 340 nm per minute was defined to be one unit.

Substrate in series [2]: O=P(O)(O)OC[C@H]1OC(O)[C@H](O)[C@@H](O)[C@@H]1O
The settings on record: other: substrate glucose-6-phosphate; pH 8.9.

Substrate in series [3]: NC(=O)c1ccc[n+]([C@@H]2O[C@H](COP(=O)([O-])OP(=O)(O)OC[C@H]3O[C@@H](n4cnc5c(N)ncnc54)[C@H](OP(=O)(O)O)[C@@H]3O)[C@@H](O)[C@H]2O)c1
As to conditions: other: coenzyme NADP or NAD; pH 8.9.

B1: heat-resistant glucose-6-phosphate dehydrogenase from Bacillus stearothermophilus UK 788 (FERM-P No. 5141) (Geobacillus stearothermophilus ATCC 12980) (protein)
chain: MDNMNPKSIIVIFGATGDLAKRKLFPSLYRLYEKGHLNEQFAVVGVARRPLSADEFRNYVRDSVETAFHQKLADGRFTSHFYYHPFDVTEAESYQRLKSLLEQLDGTYKTEGNRIFYLAMAPEFFGTVTSRLQSEGLTETHGFKRLVIEKPFGHDLASAEKLNDEIRRVFSEREIYRIDHYLGKEMVQNIKVIRFSNAIFEPLWNNRFIANIQITSSETLGVEDRGRYYDHSGALRDMVQNHMLQMVALLAMEPPIKLTTDDIRHEKVKVLRALRPIAHDEVDRYFVRGQYGRGVIHGKHVPAYREEPNVDPDSNTETFVAGKLLIDNFRWAGVPFYIRTGKRMAEKSTKIVVQFKDVPMNLYYRTNETIAPNLLVIHIQPDEGITLHLNGKKTGESTTITAPFQLDYCNNCIDGINTPEAYEKLLYDCMRGDATNFTHWDEVAASWQFVDPISEVWANTKASDFPNYAAGSMGPAAAGELLKKDGFHWWPIEHPRP
In the case of B1, the Km in series [1] stood at 1640 µM; in series [2], 160 µM; in series [3], 16 µM.

Values taken from patent US4331762A, “Bacillus stearothermophilus strain UK 788 and process for producing a useful enzyme” (Unitika Ltd., priority 1980, dated 1982).
